Measured values: patent publication US20150050211A1 (UNIVERSITY OF SOUTHERN CALIFORNIA, published 2015)

What was measured:
Experiment in all cases: cell-based or functional assay
[1] = target: Her-2 (Human epithelial growth factor 2) on SKBR-3 cells (human) (UniProt P04626)
[2] = target: T1, Her-2 (Human epithelial growth factor 2) on SKBR-3 cells (human, UniProt P04626 23-1255)
[3] = target: T1, Her-2 (Human epithelial growth factor …); remark: listed apart in the source

| IC50, inhibition of proliferation of Her-2 positive cells (SKBR-3), BrdU incorporation [1] | fold improvement of EC50 over HRAP, BrdU cell proliferation assay [2] | IC50, inhibition of proliferation of Her-2 positive cells (SKBR-3), BrdU incorporation [3] | fold enhancement of EC50 over ANHP, BrdU cell proliferation assay [2] | Molecule |
| --- | --- | --- | --- | --- |
| 67 µM |  |  |  | AHNP (peptide) |
|  | ~450 fold | 520 nM |  | MAVYVHYHK (not fully specified; V is N-methyl norvaline (positions 3 and 5); cyclized from the lysine side chain to the N-terminus) [Peptide 1] |
|  |  | 640 nM | ~110 fold | MVCVVLYDDK (not fully specified; N-methyl norvaline at positions 4 and 5 (position 2 is Val, per paragraph 127); cyclized from the lysine side chain to the N-terminus) [Peptide D] |
